Test [1] addresses trypsin (inhibition assay used during purification).
The target of test [2] is chymotrypsin (inhibition assay used during purification).

Turning to hirustasin (Hirudo antistasin), the specific activity (SA) of trypsin inhibition, Mono S pool in test [1] was 2.7 IU/mg. In test [2], the specific activity (SA) of chymotrypsin inhibition, Mono S pool was 0.15 IU/mg.

These data come from patent publication US5861377.
